From patent US11911450B2, “Method for managing pain” (UNIVERSITY OF MIAMI, priority 2017, dated 2024) come the findings set out here.

Assay [1] in a line: morphine dose vs paw withdrawal latency. The assay is classed as in vivo, mouse. As to conditions: allometric conversion to 60 kg human. As for the experimental part: Behavioral tests: Thermal and mechanical sensitivity was measured by Hargreaves test and von Frey filament threshold calculations respectively. See, e.g., Boyce-Rustay et al. Methods Mol Biol. 2010; 617:41-55; Hargreaves et al., Pain. 1988; 32(1):77-88; and Chaplan et al., J Neurosci Methods. 1994; 53(1):55-63. Tests were performed in a quiet room with daylight-like illumination. Animals were habituated to the behavioral room and apparatus for at least 60 minutes for 1 week before a blinded investigator collected data. The thermal sensitivity test was performed using an IITC Plantar Analgesia Meter apparatus (IITC Life sciences, Woodland Hills, CA) with a plastic box placed on a glass plate of constant temperature (30° C.). The mouse plantar surface was exposed to a beam of radiant heat to induced paw withdrawal. Baseline latencies were adjusted to 5-9 sec with a maximum of 20 sec as cutoff to prevent potential injury. The latency time in seconds from the onset of the intense light beam to paw withdrawal was defined as the withdrawal latency of the paw. […] The mouse hind paw was pressed with one of a series of von Frey filaments with logarithmically incrementing stiffness (Stoelting Co, Wood Dale, IL) presented perpendicular to the plantar surface of each hind paw for 1-2 seconds, the 50% threshold was determined using the Up- and Down method.

Assay [2] relates to RYR-dependent calcium release. The experiment in a line: 5HT-induced RYR-dependent cytoplasmic calcium release in NBL cells (Fura2 imaging). As to conditions: 50 μM 5HT, vs empty vector. The assay is classed as cell-based, human. The protocol:
Pharmacodynamics—Bioassay of Calcium Release: Fifteen mm glass coverslips (cat #72228 Electron Microscopy Sciences, Hatfield, PA) were coated with poly-D-Lysine (Sigma) followed by Laminin and 1×10^5 cells were seeded on each coverslip. Twenty-four hrs later, cells were transfected with AAV2-ITR, AAV2-V5-Car10, or AAV2-V5-CA10 vectors as previously described. In embodiments wherein AAV2 is not employed, other expression vectors (including viral vectors) are used. Fura-2AM (cat #F1221 ThermoFisher scientific, Waltham, MA) was dissolved in DMSO (50 μg in 50 μl) and 1% pluronic acid-127 (cat #P2443 Sigma, St Louis, MO) as the stock solution. Forty eight hrs after seeding, cells were loaded with 2 μM Fura-2AM dye for 45 min at room temperature in the dark in a standard Ca+2 buffer solution containing: 125 mM NaCl, 2 mM MgCl, 4.5 mM KCl, 10 glucose, 20 mM HEPES, 2 mM CaCl2, pH 7.4.25. Following dye loading, coverslips were washed with Ca^+2 buffer solution. […] Regions of interest over the field of view were selected and the mean pixels intensity at each frame was measured. Data was plotted as ratio fluorescence intensity versus time and subsequently converted to a relative scale.
It was also determined that 5HT-induced RYR-dependent calcium release in NBL cells is inhibited by ryanodine. […]

Entries after “also recorded” stand apart in the source; their conditions may differ.

B1: Car10: carbonic anhydrase 10, rodent ortholog, overexpressed (V5-tagged) protein (protein)
chain: MEIVWEVLFLLQANFIVCISAQQNSPKIHEGWWAYKEVVQGSFVPVPSFWGLVNSAWNLCSVGKRQSPVNIETSHMIFDPFLTPLRINTGGRKVSGTMYNTGRHVSLRLDKEHLVNISGGPMTYSHRLEEIRLHFGSEDSQGSEHLLNGQAFSGEVQLIHYNHELYTNVTEAAKSPNGLVVVSIFIKVSDSSNPFLNRMLNRDTITRITYKNDAYLLQGLNIEELYPETSSFITYDGSMTIPPCYETASWIIMNKPVYITRMQMHSLRLLSQNQPSQIFLSMSDNFRPVQPLNNRCIRTNINFSLQGKDCPNNRAQKLQYRVNEWLLK
modifications: left off: small tags and cut ends
notes: carbonic anhydrase 10, rodent ortholog, overexpressed (V5-tagged) protein
Take B1: in assay [1], the “paw withdrawal latency elevation compared to morphine human oral equivalent dose” value was “produces profound analgesia”. Moreover, in assay [2] (listed as V5-Car10), the “5HT-induced cytoplasmic calcium release, effect of overexpression” value is reported as “inhibited; also recorded: inhibits 50 μM 5HT-induced cytoplasmic calcium release”.

B2: CA10: human carbonic anhydrase 10, overexpressed (V5-tagged) protein; SEQ ID NO: 9 (protein)
chain: MEIVWEVLFLLQANFIVCISAQQNSPKIHEGWWAYKEVVQGSFVPVPSFWGLVNSAWNLCSVGKRQSPVNIETSHMIFDPFLTPLRINTGGRKVSGTMYNTGRHVSLRLDKEHLVNISGGPMTYSHRLEEIRLHFGSEDSQGSEHLLNGQAFSGEVQLIHYNHELYTNVTEAAKSPNGLVVVSIFIKVSDSSNPFLNRMLNRDTITRITYKNDAYLLQGLNIEELYPETSSFITYDGSMTIPPCYETASWIIMNKPVYITRMQMHSLRLLSQNQPSQIFLSMSDNFRPVQPLNNRCIRTNINFSLQGKDCPNNRAQKLQYRVNEWLLK
modifications: V5 tag
For B2, the “paw withdrawal latency elevation compared to morphine human oral equivalent dose” value in assay [1] was “produces profound analgesia”. In assay [2] (listed as V5-CA10), the “5HT-induced cytoplasmic calcium release, effect of overexpression” value was “inhibited; also recorded: inhibits 50 μM 5HT-induced cytoplasmic calcium release”.
